Test results from US20260224723A1, “ANTI-B7H3 ANTIBODY-DRUG CONJUGATE AND USE THEREOF” (Duality Biologics (Suzhou) Co., Ltd., priority 2022, published 2026).

Key:
[1] = system: cynomolgus monkey B7H3; assay: SPR binding affinity for cynomolgus monkey B7H3 (Biacore 8K); details: analyte cynomolgus monkey B7H3
Procedure: The affinity of antibodies for cynomolgus monkey B7H3 was determined using surface plasmon resonance (SPR). The affinity of antibodies for cynomolgus monkey B7H3 was determined by Biacore 8K. An activator was prepared by mixing 400 mM EDC and 100 mM NHS (GE) immediately prior to injection into the channel. The CM5 sensor chip was activated for 420 seconds with the activator. Goat anti-human Fe IgG (30 μg/mL in 10 mM NaAc, pH 4.5) was then injected into the channel at a flow rate of 10 μL/min for 420 seconds. The chip was deactivated by 1 M ethanolamine hydrochloric acid. The antibodies diluted in running buffer (1×HBS-EP+) were injected into the channel at a flow rate of 10 μL/min for 30 seconds. […] Glycine (10 mM, pH 1.5) was injected as regeneration buffer after the dissociation phase.
The sensorgrams for the reference channel and the buffer channel were subtracted from the test sensorgrams. The experimental data for 6 analyte concentrations (50 nM, 25 nM, 12.5 nM, 6.25 nM, 3.125 nM, and 1.563 nM) were fitted with a 1:1 binding model. The molecular weight of the cynomolgus monkey B7H3 used in the calculation was 49 kDa.
(§1) The experimental data were fitted by a 1:1 binding model bundled with the Biacore 8K evaluation software.

[2] = target: T1, human 2IgB7H3 (Homo sapiens, UniProt Q5ZPR3); assay: SPR binding affinity for human 2IgB7H3 (Biacore 8K); details: analyte human 2IgB7H3
T1 construct: His tag; purchased ACRO (ACROBiosystems) B73-H52E2
T1 sequence (Q5ZPR3 29-316 isoform Q5ZPR3-2 limits assumed): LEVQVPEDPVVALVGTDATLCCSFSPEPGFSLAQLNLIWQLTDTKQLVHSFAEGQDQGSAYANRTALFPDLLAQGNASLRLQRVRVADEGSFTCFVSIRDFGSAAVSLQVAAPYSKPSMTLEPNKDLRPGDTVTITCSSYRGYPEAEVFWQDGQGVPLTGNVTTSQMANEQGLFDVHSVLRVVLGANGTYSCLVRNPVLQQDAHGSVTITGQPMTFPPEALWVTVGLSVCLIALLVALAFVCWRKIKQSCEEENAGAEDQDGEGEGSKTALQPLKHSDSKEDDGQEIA
Procedure: The affinity of antibodies for human 2IgB7H3 was determined using surface plasmon resonance (SPR). The affinity of antibodies for human 2IgB7H3 was determined by Biacore 8K. An activator was prepared by mixing 400 mM EDC and 100 mM NHS (GE) immediately prior to injection into the channel. The CM5 sensor chip was activated for 420 seconds with the activator. Goat anti-human Fc IgG (30 μg/mL in 10 mM NaAc, pH 4.5) was then injected into the channel at a flow rate of 10 μL/min for 420 seconds. The chip was deactivated by 1 M ethanolamine hydrochloric acid. The antibodies diluted in running buffer (1×HBS-EP+) were injected into the channel at a flow rate of 10 μL/min for 30 seconds. Seven concentrations (500 nM, 250 nM, 125 nM, 62.5 nM, 31.25 nM, 15.625 nM, and 7.813 nM) of analyte human 2IgB7H3 were injected sequentially into the channel at a flow rate of 30 μL/min for an association phase of 120 seconds, followed by dissociation of 300 seconds. Glycine (10 mM, pH 1.5) was injected as regeneration buffer after the dissociation phase.
The sensorgrams for the reference channel and the buffer channel were subtracted from the test sensorgrams. The experimental data were fitted with a 1:1 binding model. The molecular weight of the human 2IgB7H3 used in the calculation was 25.2 kDa.
as §1

[3] = target: T2, human B7H3 (Homo sapiens, UniProt Q5ZPR3); assay: FACS binding to human B7H3-expressing cells MCF-7
T2 construct: MCF-7 cells expressing human full-length B7H3; host or cells: MCF-7
T2 sequence (Q5ZPR3 29-534): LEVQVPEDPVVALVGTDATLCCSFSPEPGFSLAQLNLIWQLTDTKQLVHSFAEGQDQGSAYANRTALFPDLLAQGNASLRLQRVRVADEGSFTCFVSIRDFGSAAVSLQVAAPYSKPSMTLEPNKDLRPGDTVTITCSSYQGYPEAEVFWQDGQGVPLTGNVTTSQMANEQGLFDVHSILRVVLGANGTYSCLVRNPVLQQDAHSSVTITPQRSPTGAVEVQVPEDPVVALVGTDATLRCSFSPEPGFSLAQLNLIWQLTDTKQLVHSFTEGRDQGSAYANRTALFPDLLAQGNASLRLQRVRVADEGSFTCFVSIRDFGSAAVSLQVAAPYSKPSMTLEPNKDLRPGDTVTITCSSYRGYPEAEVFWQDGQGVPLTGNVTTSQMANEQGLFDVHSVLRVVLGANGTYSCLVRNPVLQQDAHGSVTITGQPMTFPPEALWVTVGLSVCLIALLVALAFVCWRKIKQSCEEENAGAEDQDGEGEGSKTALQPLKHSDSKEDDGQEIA
Procedure: FACS was used to detect the binding of antibodies to human B7H3. This method allows quantitative analysis and identification of specific molecules expressed on the surface of living cells. Unlabeled cells were used as a control to set a threshold before the assay, and the percentage change for each group that exceeded the fluorescence intensity threshold was analyzed. MCF-7 cells expressing human full-length B7H3 (1×10^5 cells/well) were incubated with various concentrations of antibodies (3.16-fold serially diluted with 1×DPBS/1% BSA from 50 nM to 0.0005 nM) in a volume of 100 μL/well in a refrigerator set to 4° C. for 1 h. Anti-human B7H3 reference antibody enoblituzumab (MacroGeneics) was used as a positive control. Human IgG1 isotype antibody was used as a negative control. After washing the cells with 1×DPBS/1% BSA, Alexa 647 goat anti-human antibody (diluted in a 1:500 ratio in 1×DPBS/1% BSA) was added. The cells were incubated in a refrigerator set to 4° C. for 0.5 h in the dark. The mean fluorescence intensity (MFI) of the cells was measured by a flow cytometry and analyzed by FlowJo. EC50 values were calculated by four-parameter non-linear regression analysis using GraphPad Prism 7 software.

[4] = target: T3, human 4IgB7H3 (Homo sapiens, UniProt Q5ZPR3); assay: SPR binding affinity for human 4IgB7H3 (Biacore 8K); details: analyte human 4IgB7H3
T3 construct: Uniprot ID: Q5ZPR3, amino acids 29-461; 6xHis (C); made in house; host or cells: Expi293F
T3 sequence (Q5ZPR3 29-461): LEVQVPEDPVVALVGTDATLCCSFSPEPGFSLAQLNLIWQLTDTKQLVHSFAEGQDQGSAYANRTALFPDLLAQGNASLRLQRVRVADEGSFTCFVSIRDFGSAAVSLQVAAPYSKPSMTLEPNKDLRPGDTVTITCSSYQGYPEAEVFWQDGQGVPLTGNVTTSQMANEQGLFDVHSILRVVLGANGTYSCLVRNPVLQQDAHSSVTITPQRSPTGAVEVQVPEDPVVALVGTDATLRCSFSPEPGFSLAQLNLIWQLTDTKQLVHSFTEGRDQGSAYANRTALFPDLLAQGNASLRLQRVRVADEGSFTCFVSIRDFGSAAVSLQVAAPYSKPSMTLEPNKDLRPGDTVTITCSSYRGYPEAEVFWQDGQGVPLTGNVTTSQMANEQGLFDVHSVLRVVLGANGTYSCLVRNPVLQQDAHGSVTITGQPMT
Procedure: The affinity of antibodies for human 4IgB7H3 was determined using surface plasmon resonance (SPR). The affinity of antibodies for human 4IgB7H3 was determined by Biacore 8K. An activator was prepared by mixing 400 mM EDC and 100 mM NHS (GE) immediately prior to injection into the channel. The CM5 sensor chip was activated for 420 seconds with the activator. Goat anti-human Fc IgG (30 μg/mL in 10 mM NaAc, pH 4.5) was then injected into the channel at a flow rate of 10 μL/min for 420 seconds. The chip was deactivated by 1 M ethanolamine hydrochloric acid. The antibodies diluted in running buffer (1×HBS-EP+) were injected into the channel at a flow rate of 10 μL/min for 30 seconds. Seven concentrations (100 nM, 50 nM, 25 nM, 12.5 nM, 6.25 nM, […], and 1.563 nM) of analyte human 4IgB7H3 were injected sequentially into the channel at a flow rate of 30 μL/min for an association phase of 180 seconds, followed by dissociation of 3600 seconds. Glycine (10 mM, pH 1.5) was injected as regeneration buffer after the dissociation phase.
The sensorgrams for the reference channel and the buffer channel were subtracted from the test sensorgrams. The experimental data were fitted with a 1:1 binding model. The molecular weight of the human 4IgB7H3 used in the calculation was 47.8 kDa.
as §1

[5] = system: cynomolgus monkey B7H3; assay: FACS binding to cynomolgus monkey B7H3-transfected stable cell pool
Procedure: A cell pool expressing cynomolgus monkey B7H3 was generated. Briefly, FlipinCHO cells were transfected with a pcDNA5/pOG44 expression vector containing full-length cynomolgus monkey B7H3 using Lipofectamine 2000 transfection kit (Invitrogen, 11668027) according to the manufacturer's protocol. At 48 h post-transfection, the cells were subcultured into a selective medium (F12 containing 10% FBS and 600 μg/mL hygromycin B) in a T75 flask. After two or three passages of selection, a cell pool stably and highly expressing cynomolgus monkey B7H3 (WBP3XX088-FlpinCHO.cProl.pool) was obtained by hygromycin B selection and BD FACSMelody™ cell sorting.
FACS was used to detect the binding of antibodies to cynomolgus monkey B7H3. FlpinCHO cells were transfected with cynomolgus monkey B7H3 (W3XX088-FlpinCHO.cProl.pool) (1×10^5 cells/well), and the transfected cells were incubated with various concentrations of antibodies (3.16-fold serially diluted with 1×DPBS/1% BSA from 50 nM to 0.0005 nM) in a volume of 100 μL/well in a refrigerator set to 4° C. for 1 h. Anti-human B7H3 reference antibody enoblituzumab (MacroGeneics) was used as a positive control. […] The mean fluorescence intensity (MFI) of the cells was measured by a flow cytometry and analyzed by FlowJo. EC50 values were calculated by four-parameter non-linear regression analysis using GraphPad Prism 7 software.

[6] = system: MCF-7 cells expressing human full-length B7H3; assay: Internalization test (HCS) on MCF-7; format: cell-based; details: MCF-7, HCS
Procedure: Antibody internalization was determined by operetta CLS (PerkinElmer), a high-content imaging and analysis system that can collect and analyze images of samples at high speed and high sensitivity. MCF-7 cells expressing human full-length B7H3 (1.5×10^4 cells/well) were seeded into a 96-well clear bottom black plate pre-coated with 8 μg/mL poly-D-lysine. After incubation in an incubator set to 37° C., 5% CO2 overnight, various concentrations of the antibodies (3.16-fold serially diluted with 1×DPBS/1% BSA from 50 nM to 0.0005 nM) were incubated in a volume of 100 μL/well in a refrigerator set to 4° C. for 2 h. Anti-human B7H3 reference antibody enoblituzumab (MacroGeneics) was used as a positive control. Human IgG1 isotype antibody was used as a negative control. After washing the cells with 1×DPBS/1% BSA, Alexa 647 goat anti-human antibody (diluted in a 1:500 ratio in 1×DPBS/1% BSA) was added. The cells were incubated in a refrigerator set to 4° C. for 1 h in the dark. The cells were then washed once and resuspended in 1×DPBS/1% BSA at 37° C. for 2 h. […] The mean fluorescence intensity (MFI) of the cells was measured and analyzed by operetta CLS. EC50 values were calculated by four-parameter non-linear regression analysis using GraphPad Prism 7 software.

B1: Enoblituzumab (MacroGenics): anti-B7H3 benchmark antibody, sequences SEQ ID NOs: 117 and 119 of US20120294796A1 (antibody, chains of the INN, looked up)
heavy: EVQLVESGGGLVQPGGSLRLSCAASGFTFSSFGMHWVRQAPGKGLEWVAYISSDSSAIYYADTVKGRFTISRDNAKNSLYLQMNSLRDEDTAVYYCGRGRENIYYGSRLDYWGQGTTVTVSSASTKGPSVFPLAPSSKSTSGGTAALGCLVKDYFPEPVTVSWNSGALTSGVHTFPAVLQSSGLYSLSSVVTVPSSSLGTQTYICNVNHKPSNTKVDKRVEPKSCDKTHTCPPCPAPELVGGPSVFLLPPKPKDTLMISRTPEVTCVVVDVSHEDPEVKFNWYVDGVEVHNAKTKPPEEQYNSTLRVVSVLTVLHQDWLNGKEYKCKVSNKALPAPIEKTISKAKGQPREPQVYTLPPSREEMTKNQVSLTCLVKGFYPSDIAVEWESNGQPENNYKTTPLVLDSDGSFFLYSKLTVDKSRWQQGNVFSCSVMHEALHNHYTQKSLSLSPG
light: DIQLTQSPSFLSASVGDRVTITCKASQNVDTNVAWYQQKPGKAPKALIYSASYRYSGVPSRFSGSGSGTDFTLTISSLQPEDFATYYCQQYNNYPFTFGQGTKLEIKRTVAAPSVFIFPPSDEQLKSGTASVVCLLNNFYPREAKVQWKVDNALQSGNSQESVTEQDSKDSTYSLSSTLTLSKADYEKHKVYACEVTHQGLSSPVTKSFNRGEC
[1]
  ka: 185000 M⁻¹ s⁻¹
  kd: 8.14e-05 s⁻¹
[2]
  ka: 64400 M⁻¹ s⁻¹
  kd: 0.0168 s⁻¹
[3]
  Maximum MFI: 4644
[4]
  ka: 124000 M⁻¹ s⁻¹
  kd: 0.000126 s⁻¹
[5]
  Maximum MFI: 19700
[6]
  Antibody internalization Maximum MFI: 39777
